Experimental data as given in patent publication US20150299268A1 (UNIVERSITY OF MARYLAND BALTIMORE, published 2015).

What was measured:
BaL-gp120 = biological target: T1, BaL-gp120 (HIV-1 BaL); assay: ELISA
T1 construct: domain: gp120; also called monomeric gp120; monomeric BaL gp120

gp120-JR4-ScFV = assay: ELISA
gp120-JR48.1-ScFV = assay: ELISA
gp120-VRC01-ScFV = assay: ELISA
FLSC R/T = biological target: T2, FLSC R/T (HIV-1, UniProt P01730 26-208); assay: ELISA
T2 construct: not shown: linker of FLSC not described

gp120-b12-ScFV = assay: ELISA
BaL-gp120-D57AD78A = biological target: T3, BaL-gp120-D57AD78A (HIV-1 BaL); assay: capture ELISA
T3 construct: domain: gp120

BaL-gp120-H105A = biological target: T4, BaL-gp120-H105A (HIV-1 BaL); assay: capture ELISA
T4 construct: domain: gp120

BaL-gp120-Y61A = biological target: T5, BaL-gp120-Y61A (HIV-1 BaL); assay: capture ELISA
T5 construct: domain: gp120

[1] = biological target: Env of HIV-1 virus SF162.LS (HIV-1); assay: cell-based or functional assay
[2] = biological target: Env of HIV-1 virus T250-4 (HIV-1); assay: cell-based or functional assay
[3] = biological target: Env of HIV-1 virus 6545.v4.c1 (HIV-1); assay: cell-based or functional assay
[4] = biological target: Env of HIV-1 virus AC10.0.29 (HIV-1); assay: cell-based or functional assay
[5] = biological target: Env of HIV-1 virus BaL.26 (HIV-1); assay: cell-based or functional assay
[6] = biological target: Env of HIV-1 virus 1006_11_C3_1601 (HIV-1); assay: cell-based or functional assay
[7] = biological target: Env of HIV-1 virus 6535.3 (HIV-1); assay: cell-based or functional assay
[8] = biological target: Env of HIV-1 virus CAAN5342.A2 (HIV-1); assay: cell-based or functional assay
[9] = biological target: Env of HIV-1 virus 3817.v2.c59 (HIV-1); assay: cell-based or functional assay
[10] = biological target: Env of HIV-1 virus 6540.v4.c1 (HIV-1); assay: cell-based or functional assay
[11] = biological target: Env of HIV-1 virus Du422.1 (HIV-1); assay: cell-based or functional assay
[12] = biological target: Env of HIV-1 virus ZM53M.PB12 (HIV-1); assay: cell-based or functional assay
[13] = biological target: Env of HIV-1 virus THRO4156.18 (HIV-1); assay: cell-based or functional assay
[14] = biological target: Env of HIV-1 virus Du172.17 (HIV-1); assay: cell-based or functional assay

B1: N60-B1.1 (antibody, V domains shown)
VH: QLQLQESGPGLVKPSGTLSLTCSVSGGSMNGRNIYWAWIRQTPGKGLEWIGSVDVSDEDAGRTFYKWPIKSRASISADTSKNQFSLKLSSVTVADTGVYYCARETLYYVGNGYYYPLDVFYYNYYMDVWGKGTTVSVSS
VL: not shown
notes: also called bnAb N60-B1.1
With B1 the “Fold of Ab needed for ELISA binding OD equal to half max on gp120” value (from here on “Fold of Ab needed”) (BaL-gp120) was 1 fold, the “Fold of Ab needed” value (gp120-JR4-ScFV) was 0.04 fold and the “Fold of Ab needed” value (gp120-JR48.1-ScFV) was 0.14 fold. The “Fold of Ab needed” value (gp120-VRC01-ScFV) was 0.03 fold, the “Fold of Ab needed” value (FLSC R/T) was 16.4 fold and the “Fold of Ab needed” value (gp120-b12-ScFV) was 0.01 fold. For the same binder, the “% Binding” value (BaL-gp120-D57AD78A) was 103%, the “% Binding” value (BaL-gp120-H105A) was 88% and the “% Binding” value (BaL-gp120-Y61A) was 92%. The “IC50 Titer (ug/ml), neutralization” value [1] was 0.019 µg/mL, the “IC50 Titer (ug/ml), neutralization” value [2] was 0.019 µg/mL and the “IC50 Titer (ug/ml), neutralization” value [3] was 0.37 µg/mL. The “IC50 Titer (ug/ml), neutralization” value [4] was 0.14 µg/mL, the “IC50 Titer (ug/ml), neutralization” value [5] was 0.019 µg/mL and the “IC50 Titer (ug/ml), neutralization” value [6] was 0.07 µg/mL. For the same binder, the “IC50 Titer (ug/ml), neutralization” value [7] was 0.019 µg/mL, the “IC50 Titer (ug/ml), neutralization” value [8] was 0.019 µg/mL and the “IC50 Titer (ug/ml), neutralization” value [9] was 1.53 µg/mL. For the same binder, the “IC50 Titer (ug/ml), neutralization” value [10] was 0.08 µg/mL, the “IC50 Titer (ug/ml), neutralization” value [11] was 0.18 µg/mL and the “IC50 Titer (ug/ml), neutralization” value [12] was 0.019 µg/mL. For the same binder, the “IC50 Titer (ug/ml), neutralization” value [13] was 0.3 µg/mL and the “IC50 Titer (ug/ml), neutralization” value [14] was 7.08 µg/mL.
